From patent US20260204353A1 (published 2026) come the findings set out here.

What is called Kd is the free concentration of one partner at which half of the binding sites on the other are occupied at equilibrium, for simple one-to-one binding.

To fix the notation:
B1: Variant 7 (scFv, V domains shown)
VH: EVKLLESGGGLVQPGGSLRLSCAASGFTFSSYTMSWVRQAPGKGLEWVSYISHGGGDTYYPDSVKGRFTISRDNSKNTLYLQMNSLRAEDTAVYYCARHSGYERGYYYVMDYWGKGTTVTVSS
VL: DIVMTQSPDSLAVSLGERATINCKSSESVDYYGFSFLNWFQQKPGQPPKLLIYAASNRESGVPDRFSGSGSGTDFTLTISSLQAEDVAVYYCQQSKEVPWTFGQGTKLEIK
B2: Variant 5 (scFv, V domains shown)
VH: B1 VH with K3Q, L5V, K115Q, T118L
VL: DIVMTQSPDSLAVSLGERATINCKASESVDYYGFSFLNWFQQKPGQPPKLLIYAASNRESGVPDRFSGSGSGTDFTLTISSLQAEDVAVYYCQQSKEVPWTFGQGTKLEIKR
B3: Variant 6 (scFv, V domains shown)
VH: B1 VH with K3Q, L5V, K115Q, T118L
VL: B2 VL with V3Q, M4L, A12S, E59Q, Y91F
B4: Variant 8 (scFv, V domains shown)
VH: B1 VH
VL: B1 VL with S25A
B5: Variant 3 (scFv, V domains shown)
VH: B1 VH with K3Q, L5V, P61A, K115Q, T118L
VL: B2 VL with V3Q, M4L, A12S, E59Q, Y91F
B6: Variant 4 (scFv, V domains shown)
VH: B1 VH with K3Q, L5V, K115Q, T118L
VL: B2 VL with A25S
B7: Variant 1 (scFv, V domains shown)
VH: B1 VH with K3Q, L5V, P61A, K115Q, T118L
VL: B2 VL with A25S
B8: Variant 2 (scFv, V domains shown)
VH: B1 VH with K3Q, L5V, P61A, K115Q, T118L
VL: B2 VL

Residue numbers refer to the chain shown, from its start.

T1 sequence (Q15116 25-167): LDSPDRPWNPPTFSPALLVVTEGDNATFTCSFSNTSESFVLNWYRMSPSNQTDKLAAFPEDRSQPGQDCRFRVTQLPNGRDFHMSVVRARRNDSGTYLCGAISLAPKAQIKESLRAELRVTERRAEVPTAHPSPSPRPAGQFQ

One assay has as its target T1, - (UniProt Q15116 25-167). Kind of assay: SPR (Biacore T200). (In general: SPR reads the build-up and loss of mass on a sensor chip optically.)
In turn, B1 gave a dissociation constant Kd of 0.67 nM.

Molecule B2 returned a Kd of 2.3 nM.

The molecule B3 displayed a Kd of 5.8 nM.

On to B4, for which the Kd is 2.6 nM.

On to B5, for which the Kd turned out to be 5.6 nM.

B6 gave a Kd of 3.6 nM.

In the case of B7, the Kd worked out at 5.8 nM.

A further assay has as its target T1, -. Nature of the assay: SPR (Biacore T200); range printed.
The molecule B8 displayed a Kd of 2 nM.
